Measurements reported in US20190359663A1.

What was measured:
[1] = target: wild type human L-FABP protein (liver-type fatty acid-binding protein) (human) (UniProt P07148); test: sandwich ELISA (RENAPRO L-FABP Test TMB); L-FABP stored at 25 C with BSA, measured every week for four weeks; sample stored at -80 C = 100
[2] = target: L-FABP M19L/M74L/M113L (human) (UniProt P07148); test: as above
[3] = target: L-FABP bound to oleic acid (human) (UniProt P07148); test: sandwich ELISA; L-FABP stored at 37 C for two weeks in BSA-containing buffer; sample stored at 4 C = 100 (FIG. 20)
[4] = target: wild type human L-FABP protein (liver-type fatty acid-binding protein) (human) (UniProt P07148); test: as above
[5] = target: wild type human L-FABP protein (liver-type fatty acid-binding protein) (human) (UniProt P07148); test: sandwich ELISA (RENAPRO L-FABP Test TMB) with 1 mass % BSA; arachidonic acid added to L-FABP at various concentrations, 1.5 h room temperature; untreated sample = 100
[6] = target: L-FABP M19L/M74L/M113L (human) (UniProt P07148); test: as above
[7] = target: L-FABP M19L (human) (UniProt P07148); test: ELISA (kit not named in this example); OD ratio with and without oxidation treatment with 10 mM AAPH for 1 h at 25 C; FIG. 23
[8] = target: L-FABP bound to oleic acid (human) (UniProt P07148); test: as above
[9] = target: L-FABP WT treated with 4 mM AAPH (human) (UniProt P07148); test: as above
[10] = target: L-FABP M19L/M113L (human) (UniProt P07148); test: as above
[11] = target: L-FABP bound to arachidonic acid (human) (UniProt P07148); test: as above
[12] = target: L-FABP WT treated with 0.5 mM AAPH (human) (UniProt P07148); test: as above
[13] = target: wild type human L-FABP protein (liver-type fatty acid-binding protein) (human) (UniProt P07148); test: as above
[14] = target: L-FABP M19L/M74L/M113L (human) (UniProt P07148); test: as above
[15] = target: wild type human L-FABP protein (liver-type fatty acid-binding protein) (human) (UniProt P07148); test: sandwich ELISA (RENAPRO L-FABP test TMB); L-FABP reacted with 0 to 5 mM AAPH for 1 h at room temperature with BSA; untreated sample = 100
[16] = target: L-FABP M19L/M74L/M113L (human) (UniProt P07148); test: as above
[17] = target: wild type human L-FABP protein (liver-type fatty acid-binding protein) (human) (UniProt P07148); test: sandwich ELISA (RENAPRO L-FABP Test TMB) with 1 mass % BSA; oleic acid added to L-FABP at various concentrations, 1.5 h room temperature; untreated sample = 100
[18] = target: L-FABP M19L/M74L/M113L (human) (UniProt P07148); test: as above
[19] = target: wild type human L-FABP protein (liver-type fatty acid-binding protein) (human) (UniProt P07148); test: sandwich ELISA (RENAPRO L-FABP Test TMB); L-FABP stored at 37 C with BSA, measured every week for four weeks; sample stored at -80 C = 100
[20] = target: L-FABP M19L/M74L/M113L (human) (UniProt P07148); test: as above
[21] = target: L-FABP WT treated with 4 mM AAPH (human) (UniProt P07148); test: ELISA (kit not named in this example); OD ratio with and without oxidation treatment with 10 mM AAPH for 1 h at 25 C; FIG. 21
[22] = target: L-FABP WT treated with 0.5 mM AAPH (human) (UniProt P07148); test: as above
[23] = target: wild type human L-FABP protein (liver-type fatty acid-binding protein) (human) (UniProt P07148); test: as above
[24] = target: L-FABP M19L/M74L/M113L (human) (UniProt P07148); test: as above
[25] = target: L-FABP that had been oxidation-treated with 40 mM AAPH (human) (UniProt P07148); test: sandwich ELISA (RENAPRO L-FABP Test TMB); L-FABP stored at 37 C, measured every week for two weeks; sample stored at 4 C = 100
[26] = target: wild type human L-FABP protein (liver-type fatty acid-binding protein) (human) (UniProt P07148); test: as above
[27] = target: wild type human L-FABP protein (liver-type fatty acid-binding protein) (human) (UniProt P07148); test: sandwich ELISA (RENAPRO L-FABP Test TMB) with 1 mass % BSA; 8-iso-prostaglandin F2α added to L-FABP at various concentrations, 1.5 h room temperature; untreated sample = 100
[28] = target: L-FABP M19L/M74L/M113L (human) (UniProt P07148); test: as above
[29] = target: L-FABP bound to arachidonic acid (human) (UniProt P07148); test: sandwich ELISA; L-FABP stored at 37 C for two weeks in BSA-containing buffer; sample stored at 4 C = 100 (FIG. 19)
[30] = target: wild type human L-FABP protein (liver-type fatty acid-binding protein) (human) (UniProt P07148); test: as above

labeled antibody of the sandwich ELISA kit RENAPRO L-FABP Test TMB (CMIC HOLDINGS Co., Ltd.)
ELISA measured value (OD 450 nm), % of sample stored at -80 C [1]: 110 to 128% | ELISA measured value (OD 450 nm), % of sample stored at -80 C [2]: 101 to 111% | ELISA measured value, % of sample stored at 4 C [3]: 100 to 110% | ELISA measured value, % of sample stored at 4 C [4]: 120 to 130% | ELISA measured value (OD 450 nm), % of untreated sample [5]: 104 to 220% | ELISA measured value (OD 450 nm), % of untreated sample [6]: 88 to 103% | coefficient of change in oxidation (OD ratio, oxidation-treated / not treated) [7]: < 1.4 | coefficient of change in oxidation (OD ratio, oxidation-treated / not treated) [8]: < 1.4 | coefficient of change in oxidation (OD ratio, oxidation-treated / not treated) [9]: < 1.4 | coefficient of change in oxidation (OD ratio, oxidation-treated / not treated) [10]: < 1.4 | coefficient of change in oxidation (OD ratio, oxidation-treated / not treated) [11]: < 1.4 | coefficient of change in oxidation (OD ratio, oxidation-treated / not treated) [12]: < 1.4 | coefficient of change in oxidation (OD ratio, oxidation-treated / not treated) [13]: 1.8 | coefficient of change in oxidation (OD ratio, oxidation-treated / not treated) [14]: < 1.4 | ELISA measured value (OD 450 nm), % of untreated sample [15]: 112 to 121% | ELISA measured value (OD 450 nm), % of untreated sample [16]: 102 to 107% | ELISA measured value (OD 450 nm), % of untreated sample [17]: 100 to 124% | ELISA measured value (OD 450 nm), % of untreated sample [18]: 92 to 107% | ELISA measured value (OD 450 nm), % of sample stored at -80 C [19]: 117 to 143% | ELISA measured value (OD 450 nm), % of sample stored at -80 C [20]: 104 to 113% | coefficient of change in oxidation (OD ratio, oxidation-treated / not treated) [21]: < 1.3 | coefficient of change in oxidation (OD ratio, oxidation-treated / not treated) [22]: < 1.3 | coefficient of change in oxidation (OD ratio, oxidation-treated / not treated) [23]: 1.8 | coefficient of change in oxidation (OD ratio, oxidation-treated / not treated) [24]: < 1.3 | ELISA measured value (OD 450 nm), % of sample stored at 4 C [25]: 94 to 102% | ELISA measured value (OD 450 nm), % of sample stored at 4 C [26]: 114 to 130% | ELISA measured value (OD 450 nm), % of untreated sample [27]: 95 to 118% | ELISA measured value (OD 450 nm), % of untreated sample [28]: 96 to 101% | ELISA measured value, % of sample stored at 4 C [29]: 99.9 to 100% | ELISA measured value, % of sample stored at 4 C [30]: 118 to 132%
